Measured values reported in the nanobody polyreactivity screen of Harvey et al. (2022).

Assay: yeast display, Sf9 membrane polyspecificity reagent, FACS + sequencing; frameworks hold sequencing errors
How it was run: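 Synthetic nanobody libraries on Saccharomyces cerevisiae BJ5465 were galactose-induced for 36–48 hours, stained 1 hour at 4 °C with 10% biotinylated, detergent-solubilized Sf9 membrane reagent and enriched on streptavidin microbeads. FACS then separated cells into low and high (top ~1%) gates by anti-HA (expression) and streptavidin (reagent binding) fluorescence. Genes were colony-PCR amplified, MiSeq 2 × 250 sequenced and CDR-length filtered. A clone's polyreactivity label is that of its gate of origin.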

| Sequence | polyreactivity (PSR sort gate) |
| --- | --- |
| QVQLVESGGGLVQAGGSLRLSCAASGSIFPLNDMGWYRQAPGKERELVAAITIGGSTYYADSVKGRFTISRDNAKNTVYLQMNSLKPEDTAVYYCAKVGELSYRYDYWGQGTQVTVSS | high polyreactivity |
| QVQLVESGGGLFQAGGSLRLSCAASGSTLYEYAMGWYRQAPGKERELVAAINWSGGSTYYADSVKGRFTISRDNAKNTVYLQMNSLKPEDTAVYYCNRVKTGSTYRRRYWSMGYWGQGTQVTVSS | high polyreactivity |
| QVQLVESGGGLVQAGVSLRLICAATGSIFWRKTKGWYRQAPGKEREFVAAISTSGSTYYADSVKGRFTISRDNAKNTVYLKMNSLKPEDTAVYYCAADASRGYQREGGYWGQGTQVTVSS | high polyreactivity |
| QVQLVESGGGLVQAGGSLRFSCAASGFIFTYNAMGWYRQAPGKERELVAAITRNGVSTHYADSVKGRFTISRDNAKNSVYLQMNSLKPEDTAVYYCAADPRGWRHYYWGQGTQVTVSS | low polyreactivity |
| QVQLLESGGGLVQAGGSLRLSCDASGFTFVAYAMGWYRQAPGKERELVAVISRGGSTYYADSVKGRFTISRDNAKNTVYLQMNSLKPEDTAVYYCAATFIHSYGKFFYWGQGTQVTLSS | low polyreactivity |
| QVQLVESGGGLVQAGGSLRLSCAASGRIFKLYAMGWYRQAPGKERELVATIRYSGGSTYYADSVKGRFTISRDNAKNSVYLHMNSLKPEDTAVYYCNYVSRRQYFEYDYWGQGTQVTVSS | low polyreactivity |
| QVQLVESGGGLVQAGGSLRLSCAASGSTFVYYAMGWYRQAPGKERELVAAITGSVDSTYYADSVKGRFTISRDNAKNTVYLQMNSLKPEDTAVYYCAADTYSTYWGQGTQVTVSS | low polyreactivity |
| QVQLVESGGVLVQAGGSLRLSCAASGFTLKWNAMGWYRQAPGKERELVARISRSGGSTNYADSVKGRFTISRDNAKNTVYLQMISLKPEDTAVFYCNTPSSREMDYWGQGTQVTVSS | low polyreactivity |
| QVQLVESGGGLVQAGGSLRLSCAASGSIFVTNVMGWYRQAPGKERELVAVINSGGRTYYADSVKGRFTISRDNAKNTVYLQMNSLKPEDTAVYYCAKDSWSSFQSLYPEFDYWGQGTQVTVSS | low polyreactivity |
| QDQHVESGGGLVQAGGSLRLSCAASGFTFDFYAMGWYRQAPGKERELVAAISKNDGTTYYADSVKGRFTISRDNAKNTVYLQMNSLKPEDTGVYYCAAESGYPVYTYVSSGDYWGQGTQVTVSS | low polyreactivity |
| QVQLVESGGGLVQAGGSLRLSCASSGSTFVPNTLGWYRQAPGKERELVAAISRSGGSTYYADSVKGRFTISRDNAKNTVYLQMNSLKPEDTAVYYCAARRFGYQGFAYGYWGQGTQVTVSS | high polyreactivity |
| QVQLVESGGGLVQAGGSLRLSCAASGRTITFNTMGWYRQAPGKERELVAGIDRGGSTNYADSVKGRFTISRDNAKNTVYLQMNSLKPEDTAVYYCAKRWTGLGGYYYWGQGTQVTVSS | high polyreactivity |
| QFQLVESGGGLVQAGGSLRLSCAASGRIFHSNAMGWYRQAPGKERELVAAITWSTGRTYYADSVKGRFTISRDNAKNTVYLQMNSLKPEDTAVYYCFRFSYYTGDYWGQGTQVTVSS | high polyreactivity |
| QVQHVESGGGLVQAGGSLRLSCAASGRIFGYYAMGWYRQAPGKERELVAAISRGGSTNYADSVNGRFTISLDNAKNSVYFQMNSLNPEDTAVYYCAADVASARYYHGYNYWGQGTQVTLSS | high polyreactivity |
| QVQLVESGVGLDQARGSLRLSCAASGITFDDYAMGWYRQAPGKERELVAAISVSGGDTYYADSVKGRFTISRDNAKNTVYLQMNSLKPEDSAVYYCAAEEVSPRWYEYWGQGTQVTVSS | low polyreactivity |
| QVQLVESGGGLVQAGGSLRLSCAASGFIFVVYDMGWYRQAPGKERELVAGIDTSGADTYYADSVKGRFTISRDNAKNTVYLQMNRLKPEDPAVYYCAAETITDDYYEYDYWGQGTQVTVSS | low polyreactivity |
| QVQIVESGGGLVQAGGSLRLSCDASGSTFVRYAMGWYRQAHGKERELVAAISYRGGSTYYADSVKGRFTISRDNAKNTVYLQMNSLKPEDTAVYYCAAESRHVEGEYWGQGTQVTVSS | high polyreactivity |
| QVQLVESGGGLVQAGGSLRLSCAASGFIFWLYAMGWYRQAPGKERELVATITYSDGSTYYADSVKGRFTISRDNAKNTVYLQMNSLKPEDTAVYYCAAEVYYGYDYWGQGTQVTVSS | low polyreactivity |
| QVQLVESGGGLGQAGGSLRLSCAASGSIFAGNAMGWYRQAPRKERELVAAISRRGGSTYYADSVKGRFTISRDNAKNTVYLQMNSLKPEDTAVYYCNALLRYAYHAAYGYWGQGTQVTVSS | high polyreactivity |
| QVQLVESGGGLVQAGGSLRLSCAASGRIFGTYAMGWYRQAPGKERELVAAISFRGGSTYYADTVNGRFTISRDNAKNTVYLQMNCLKPEDTAVYYCNARKRYSTDPGDYWGQGTQVTVSS | high polyreactivity |
| QVQLVESGGGLVQAGGSLSLSCAASVSTSLSYDMGWYRQAPGKERELVASITSSGGSTYYADSVKGRFTIARDNAKNTVYLQMKSLKPEDTAVYYCNARSYIYPFSPTSYYRYYWGQGTQVTVSS | high polyreactivity |
| QVQLVESGGGLVQAGGSLRLSCAASGFIIGRNAMGWYRQAPGKERELVAAMSTSGASTYYADSVKGRFTISRDNAKNTVYFQMNSLKPEDTAVYYCAARRPVWDGRGSGYDYWGQGTQVTVSS | low polyreactivity |
| QVQLQESGGGLVQAGGSLRLSCAASGSNSILQSMGWYRQAPRKERELVAGINWGATTYYADSVKGRLTTSRDYAINTVYLQMNSLKPEATAVYYCAVPTYYTYPLLYWGQGTQVTVSS | low polyreactivity |
| QVQLVESGGGLVQAGGILRLSCAASGRTFKYYAMGWYRQAPGKERELVATITWSGTSTNFADSVKGRFTISRDNAKNTVYLQMNSLKPEDTAVYYCAARSKRRNYDYWGQGTQVTVSS | high polyreactivity |
| QVQLVDSGGGLVQAGGSLSLSCAASGRTFNWYTMGWYRQAPGKEMELVARINGRGGSTYYADSVKGRFTISRDNAKNTVYLQMNSLKPEDTAVYYCNKPHRWPQAGYGYWGQGTQVTVSS | high polyreactivity |
| QVQIVESGAVIVQAGGSLRLSCAASGSTFGSYTMGWYRQAPGKERELVASISRDGRTKYADSVKGRFTISRDNATNTVYLQMKSLKPEDTAVYYCANSKWRGRGGTYDYWGQVTQVTVSS | high polyreactivity |
| QVQLVASGGGLLQAGGSLRLSCAASGRILRVYAMGWYRPAPGKESELVAAITWRGGSTYYADSVKGRFTISRDNAKNTVYLQMNSLKPEDTAVYYCAAEAYSYGYSALLYDYWGQGTQVTVSS | high polyreactivity |
| QVQLVESGGGLVQAGGSLRLSCAASGSIFAFYAMGRYRQAPGKERELVAAISYNGGSTYYADSVKGRFTISRDNAKNTVYLQMNSLKAEDTAVYYCAAYHFRAPSEYDYWGQGTQVTVSS | low polyreactivity |
| QVQLGESGGGLVQAGGSLRLTCAAYGRIYGGNAMGWYRQATGKEWELDAGISRRGGSTYYADSVKGRFTISRDNEKNTVYLQMNRLKPEDTAVYYCYAYYRYSVFAEKYDYWGQGTHVTVSS | high polyreactivity |
| QVQRVESGGGLVQAGGSLRLSSAGSGFTYYRNAMGWYRQAPGKERELVAAISFSGGSTYYADSVKGRFTISRDNAKNTVYLQMNSLKPEDTAVYYCAREDYSHSFLTYDYWGQGTQLTVSS | low polyreactivity |
